Like-named read-outs stand apart in the source and are kept apart here.
Assays:
[1] = molecular target: Fc; experiment: phage ELISA, Fc coated
[2] = molecular target: anti-myc antibody coated on the ELISA plate; experiment: phage ELISA, anti-myc coated
[3] = molecular target: DLK1-Fc fusion protein (human); experiment: phage ELISA, DLK1 coated
[4] = molecular target: DLK1-Fc fusion protein (human); experiment: phage ELISA; OD on DLK1 divided by OD on a-myc
[5] = molecular target: T1, ACVR2B-Fc fusion protein (human) (UniProt Q13705); experiment: SPR (ProteOn XPR36)
T1 sequence: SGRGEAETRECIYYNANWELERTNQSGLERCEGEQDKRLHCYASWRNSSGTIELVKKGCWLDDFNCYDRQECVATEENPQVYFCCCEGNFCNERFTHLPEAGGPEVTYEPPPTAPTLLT

[6] = molecular target: T1, ACVR2B-Fc fusion protein (human); experiment: phage ELISA; OD on ACVR2B divided by OD on a-myc
[7] = molecular target: anti-myc antibody coated on the ELISA plate; experiment: phage ELISA, anti-myc coated; remark: listed apart in the source
[8] = molecular target: Fc; experiment: phage ELISA, Fc coated; remark: listed apart in the source
[9] = molecular target: T1, ACVR2B-Fc fusion protein (human); experiment: phage ELISA, ACVR2B coated
[10] = molecular target: T1, ACVR2B-Fc fusion protein (human); experiment: phage ELISA, ACVR2B coated; remark: listed apart in the source

Chain of DLK1-Fc fusion protein (human) (chain, as listed by the source limits assumed, form in doubt): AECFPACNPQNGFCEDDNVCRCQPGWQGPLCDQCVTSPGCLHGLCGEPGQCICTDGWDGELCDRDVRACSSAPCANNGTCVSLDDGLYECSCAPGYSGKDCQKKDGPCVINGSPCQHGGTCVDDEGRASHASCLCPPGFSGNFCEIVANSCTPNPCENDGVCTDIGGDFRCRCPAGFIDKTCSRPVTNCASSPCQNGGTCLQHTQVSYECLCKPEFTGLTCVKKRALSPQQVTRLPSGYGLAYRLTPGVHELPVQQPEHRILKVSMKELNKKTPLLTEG

Binder	OD490 [1] [OD]	OD490 [2] [OD]	OD490 [3] [OD]	Ratio [4]	Kd [5] [pM]	koff [5] [s⁻¹]	kon [5] [M⁻¹ s⁻¹]	Ratio [6]	OD490 [7] [OD]	OD490 [8] [OD]	OD490 [9] [OD]	OD490 [10] [OD]
DLK1 B09 (monoclonal scFv-phage) (scFv, V domains shown) VH: QMQLVESGGRLVRPGGSLRLSCAASGFPFTSYAMNWVRQTPGKGLEWVSTITATSGKTYYADSVKGRFTISRDNSRNTLFLQMNSLRAEDTAVYYCVRGESCSGGACSDFDYWGQGALVTVSS VL: QLVLTQPASVSGSPGQSVTISCTGTSSDIGRYNRVSWYQHHPGKAPKLILNDVTTRPSGFSNRFSGSKSGNTASLTISGLQAEDEADYSCGSYAGSYTYVFGTGTKVTVL	0.0786	0.0918	2.33	25.3								
DLK1 A10 (monoclonal scFv-phage) (scFv, V domains shown) VH: QVQLVESGGGLVQPGRSLRLSCAASGFTFDDYAMHWVRQAPGKGLEWVSGISWNSGSIGYADSVKGRFTISRDNAKNSLYLQMNSLRAEDTAVYYCARGPGLATGKGYADYWGQGTLVTVSS VL: DIQMTQSPSSVSASVGDRVTITCRASQRISSWLAWYQQKPGRAPKLLIHSASTLHNGVPSRFSGSASGTDFTLTISSLQPEDYAIYYCQQGHSFPYTFGQGTKLEIK	0.0828	1.28	2.83	2.21								
human antibody F08 (full-length IgG) (antibody, V domains shown, constant regions not given) VH: VQLVESGGGLVQPGGSLRLSCAASGFTFSDHYMDWVRQAPGKGLEWVGRTRNKANSYTTEYAASVKGRFTISRDDSKNSLYLQMNSLRAEDTAVYYCTKGAWLDYWGQGTLVTVSS VL: IQMTQSPSAMSASVGDRVTITCRASQGISNYLAWFQQKPGKVPKRLIYGASSLQGGVPSRFSGSGSGTEFTLTITSLQPEDFATYFCLQHKSYPLTFGPGTKVEIK					4.05	1.32e-05	3.25e+06					
ACVR2B A07 (monoclonal scFv-phage) (scFv, V domains shown, scFv linker not given) VH: QLVESGGGLVRPGRSLTLSCTASGFTFNDYAMHWVRQAPGKGLEWVSGISWNTNSKAYADSVKGRFIISRDNAKNSLYLEMNSLRAEDTAVYYCVRDGGRFYYGLDVWGQGTSVTVSS VL: DIVMTQTPVSSPVTLGQPASISCRSSQSLIHSDGNTYLSWIQQRPGQPPRLLIYKISNRFSGVPDRFSGSGAGTDFTLKISRVEAEDVGVYYCAETSQVPHTFGQGTKVEIK	0.0443	0.213						12.5	0.213	0.044	2.66	2.65
DLK1 H06 (monoclonal scFv-phage) (scFv, V domains shown) VH: QVQLVQSGGGLIQPGGSLRLSCAASGFTFSLYGMSWVRQAPGKGLEWVSSIPGSGTRTHYADSVKGRFTISRDNSKNTLFLQMNSLRAEDTAVYYCAKSTAYLFDYWGPGTLVTVSS VL: DIQMTQSPATLSLSPGERATLSCRASQSIRHYLAWYQQKPGQAPRLLIHGASSRATGIPDRFSGSGSGTDFTLTISRLEPEDFAVYYCQHYGSPLHSFGPGTKVEIK	0.0766	0.863	2.13	2.47								
DLK1 A05 (monoclonal scFv-phage) (scFv, V domains shown) VH: QMQLVESGGGLVQPGRSLRLSCAASGFTFDEHAMHWVRQAPGKGLEWVSGINWNSGKTGYADSVKGRFTISRDNGKNSLYLQMNSLRAEDTAVYYCAKSGGYGGNTNWYFDLWGRGTLVTVSS VL: QFVLTQPPSVSGAPGQNVTISCIGTSSNIGVGYDVHWYQQVPGTAPKLLVYGNNNRPSGVPDRFSGSKSGTSASLAITGLQAEDEADYYCQSYDSRLGVVFGGGTKLTVL	0.0704	0.784	2.99	3.81								
DLK1 A04 (monoclonal scFv-phage) (scFv, V domains shown) VH: QVQLVESGAEVKKPGASVKVSCKASGYTFKDYAIHWVRQAPGQRLEWMGWINPGSGNTKYSHNFEGRVILTRDASANTAYLELPSLRSEDTAVYYCARSVSAYGSNYFDPWGQGTLITVSS VL: DIQMTQSPSSLSASVGDRVTITCQASQDISNYLNWYQQKPGKAPKLLIYSTSNLQSGVPSRFSGSGSGTDFTLTISSLQPEDFATYYCQQLNSYPLTFGGGTKVDIK	0.0791	0.507	3.12	6.15								
DLK1 H12 (monoclonal scFv-phage) (scFv, V domains shown) VH: QVQLVQSGGGLVKPGGSLRLSCAASEFTFSDYYMSWVRQAPGKGLEWLSYISGSGITTYYADSVKGRFTISRDNGKKSLYLEMNSLRAEDTAVYYCARLQGHCSGGACSNWFDAWGQGTLITVSS VL: DIQMTQSPSSLSASVGDRLTITCRASQSILTYLNWYQQKPGKAPKLLIYAASSLQRGVPSRFSGSGSGTDFTLTISGLQPEDFATYYCQQGYGTPYTFGQGTKVDIK	0.0539	0.674	3.2	4.75								

— US20150030595A1
